Test results from patent publication US20170304361A1.

The substances below were run against Insulin Receptor (Isoform B by the title of Table 1; 'the A isoform of the insulin receptor' by the text) (UniProt P06213) (assay: competitive displacement of radiolabelled tracer; relative to wild-type human insulin).
Substance “GluA8 derivative of AspB10, 2F-PheB24, LysB28, ProB29-human insulin (T-0338) (ligand)” has a relative affinity of 52%.
Work on “GluA8, GlyA21 derivative of AspB10, 2F-PheB24, GluB29-human insulin (T-0348) (ligand)” yielded a relative affinity of 44%.
“GluA8 derivative of AspB10, ortho-fluoro-PheB24, GluB29-insulin (T-0339) (ligand)” gave a relative affinity of 43%.
Substance “GlyA21 derivative of AspB10, 2F-PheB24, LysB28, ProB29-human insulin (T-0346) (ligand)” has a relative affinity of 59%.
Work on “GlyA21 derivative of AspB10, ortho-fluoro-PheB24, GluB29-insulin (T-0347) (ligand)” yielded a relative affinity of 42%.
